Assay results: article PMC12207370, “Macrocyclic Peptide Probes for Immunomodulatory Protein CD59: Potent Modulators of Bacterial Toxin Activity and Antibody‐Dependent Cytotoxicity” (Angewandte Chemie (International Ed. in English), 2025)

Target: T1, biotinylated CD59 (Homo sapiens, UniProt P13987)
T1 construct: Recombinant soluble human CD59 with an additional C-terminal cysteine residue
T1 sequence (P13987 26-102 limits assumed): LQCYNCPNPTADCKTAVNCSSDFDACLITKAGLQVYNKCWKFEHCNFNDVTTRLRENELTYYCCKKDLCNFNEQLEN
Assay: mRNA-display cyclic peptide screen against CD59-biotin, NGS abundance after 6th selection round
Conditions: for Percentage Seq I: counts normalised by total counts of sample Seq I; for Percentage Seq I / Percentage Seq II: percentage of the pool; for Percentage Seq I / Percentage Seq II / Percentage Average / Percentage of the pool, averaged across the two sequencing samples / Percentage of the pool, Seq I / Percentage of the pool, Seq II: sheet R6; for Percentage Seq II: counts normalised by total counts of sample Seq II; for Percentage Average: percentage of the pool averaged across the two sequencing samples; for Counts Seq I / Counts Seq II: raw NGS counts of peptide sequence; for Counts Seq I: sequencing sample Seq I; for Counts Seq I / Counts Seq II / Counts (raw counts for peptide sequence), Seq I / Counts (raw counts for peptide sequence), Seq II: sheet R6 (6th selection round); for Counts Seq II: sequencing sample Seq II; for Counts (raw counts for peptide sequence), Seq I: NGS sample Seq I; for Counts (raw counts for peptide sequence), Seq II: NGS sample Seq II; for Percentage of the pool, averaged across the two sequencing samples: average of Seq I and Seq II; for Percentage of the pool, Seq I: counts normalised by total counts of NGS sample Seq I; for Percentage of the pool, Seq II: counts normalised by total counts of NGS sample Seq II
Description: To discover novel non‐protein CD59 ligands, we screened a library of 10^12 cyclic peptides against CD59 using mRNA‐display (Figure 2a).^[ [23], [24], [25], [26], [27], [28], [29] ^] Briefly, an mRNA library was designed in which the start codon was reprogrammed from Met to N‐chloroacetyl‐D‐Tyr (ClAc‐D‐Tyr), followed by 10–12 randomly encoded natural amino acids, a Cys residue, a (GlySer)3 linker, and a stop codon. […] The total library diversity was 1.51 × 10^13 molecules, comprising 5.02 × 10^12 molecules of each macrocycle size, covering a subset of the maximum theoretical diversity of this library design. Following in vitro translation, ClAc‐D‐Tyr spontaneously reacts with either the C‐terminal Cys or a Cys in the random region, yielding macrocyclic thioether peptides. Hits from the library were identified through iterative enrichment and amplification against biotinylated CD59, then immobilized on streptavidin beads. Fifteen hit sequences (CP‐01 to CP‐15), enriched with abundance >1% relative to the total pool of recovered binders after the 6th round of selection, were synthesized by solid phase peptide synthesis (SPPS), without the (Gly‐Ser)3 linker.
Figure 2 Discovery of macrocyclic peptide ligands with nanomolar CD59 affinity using mRNA display. a) The selection process. PCR = polymerase chain reaction, SPPS = solid phase peptide synthesis. b) Table showing details of the peptides with nanomolar affinity for CD59 as well as the binding affinity of the lead inhibitor of CD59, rILYd4. K D values are presented as the average of three technical replicates ± SEM. Structures of all peptides and SPR sensograms are presented in Figures S1 and S2. *indicates the presented sequences are the variable regions of these cyclic peptides; each is flanked by an N‐terminal Ac‐D‐Tyr cyclized to a C‐terminal Cys. R6 abundance (%) is defined as (the given number of NGS reads for a given sequence/the total number of reads of unique sequences observed in NGS)*100 following the 6th selection round. c) Representative sensogram of the interaction between CP‐06 with immobilized CD59 by SPR analysis. Inset showing the equilibrium binding curve of CP‐06 to CD‐59. Below in the box are the association and dissociation rate constants of CP‐06. Concentrations are plotted in descending order from 800‐3.1 nM in line with their position on the legend. […] (nM)'; the box with Kon/Koff has no label of its own / ILYd4: the label may be cut off at the left edge (possibly 'rILYd4') / CP-02, KD: 15.3 ± 0.2, small print, 3 or 8 uncertain / CP-03, KD: 23.4 ± 0.7, small print / CP-06, KD: 11.3 ± 0.0, small print, 3 or 8 uncertain / CP-13, KD: 10.8 ± 0.7, small print, 8 or 6 uncertain / ILYd4, KD: 48.3 ± 1.1, small print, 8 and 3 uncertain
The mRNA-display cyclic peptide screen was performed against CD59-biotin by T.E.M: DNA templates for transcription were generated by PCR in a similar manner to that previously described.^2 RNA oligonucleotides were transcribed from the DNA templates using T7 RNA polymerase and purified by phenol/chloroform extraction followed by ethanol precipitation. Oligonucleotide concentrations were determined spectroscopically by absorbance at 260 nm. In the first selection round a 1:1:1 molar ratio of NNK10/NNK11/NNK12 was used. The procedure for selection rounds 2-6 is described below; round 1 was conducted at twice the scale.
RNA encoding for the peptide library ligated to a puromycin-modified oligonucleotide was […] (final [RNA] = 2.5 µM) using a customised PURE express kit (lacking release factor 1 and methionine, supplemented with […] initiator tRNA acylated with N-chloroacetyl-d-tyrosine prepared as previously described)^3 in a final volume of 5.6 µL for 1 hour at 37 °C.
This mixture was incubated at 42 °C for 1 hour before being diluted to 500 µL with PBS (10 mM Na-PO4 pH 7.4, 2.7 mM KCl, 137 mM NaCl) and 0.5 µL taken for subsequent use in qPCR. […]

## CYGGRTFIYACS
  Percentage Seq I: 0.019%
  Percentage Seq II: 0.021%
  Percentage Average: 0.020%
  Counts Seq I: 83
  Counts Seq II: 9

## CYGGRTFIYARS
  Percentage Seq I: 0.027%
  Percentage Seq II: 0.016%
  Percentage Average: 0.021%
  Counts Seq I: 117
  Counts Seq II: 7

## CYGGRTFIYAWL
  Counts (raw counts for peptide sequence), Seq I: 35
  Counts (raw counts for peptide sequence), Seq II: 8
  Percentage of the pool, averaged across the two sequencing samples: 0.013%
  Percentage of the pool, Seq I: 0.008%
  Percentage of the pool, Seq II: 0.019%

## CYGGRTFIYAWP
  Percentage Seq I: 0.060%
  Percentage Seq II: 0.072%
  Percentage Average: 0.066%
  Counts Seq I: 263
  Counts Seq II: 31

## CYGGRTFIYAWS
  Percentage Seq I: 8.492%
  Percentage Seq II: 8.097%
  Percentage Average: 8.295%
  Counts Seq I: 37156
  Counts Seq II: 3489

## CYGGRTFIYAWT
  Percentage Seq I: 0.043%
  Percentage Seq II: 0.035%
  Percentage Average: 0.039%
  Counts Seq I: 190
  Counts Seq II: 15

## CYGGRTFIYEWS
  Percentage Seq I: 0.037%
  Percentage Seq II: 0.042%
  Percentage Average: 0.040%
  Counts Seq I: 164
  Counts Seq II: 18

## CYGGRTFIYSWS
  Counts (raw counts for peptide sequence), Seq I: 46
  Counts (raw counts for peptide sequence), Seq II: 8
  Percentage of the pool, averaged across the two sequencing samples: 0.015%
  Percentage of the pool, Seq I: 0.011%
  Percentage of the pool, Seq II: 0.019%

## CYGGRTFIYTWS
  Counts (raw counts for peptide sequence), Seq I: 74
  Counts (raw counts for peptide sequence), Seq II: 4
  Percentage of the pool, averaged across the two sequencing samples: 0.013%
  Percentage of the pool, Seq I: 0.017%
  Percentage of the pool, Seq II: 0.009%

## CYGGRTFIYVWS
  Percentage Seq I: 0.038%
  Percentage Seq II: 0.023%
  Percentage Average: 0.031%
  Counts Seq I: 168
  Counts Seq II: 10

## CYGGRTFTYAWS
  Percentage Seq I: 0.241%
  Percentage Seq II: 0.306%
  Percentage Average: 0.274%
  Counts Seq I: 1056
  Counts Seq II: 132

## CYGGRTFVYAWS
  Percentage Seq I: 0.103%
  Percentage Seq II: 0.104%
  Percentage Average: 0.104%
  Counts Seq I: 450
  Counts Seq II: 45

## CYGGRTLIYAWS
  Percentage Seq I: 0.028%
  Percentage Seq II: 0.019%
  Percentage Average: 0.023%
  Counts Seq I: 121
  Counts Seq II: 8

## CYGGRTSIYAWS
  Percentage Seq I: 0.032%
  Percentage Seq II: 0.023%
  Percentage Average: 0.028%
  Counts Seq I: 142
  Counts Seq II: 10

## CYGGRTYIYAWS
  Percentage Seq I: 0.018%
  Percentage Seq II: 0.019%
  Percentage Average: 0.018%
  Counts Seq I: 77
  Counts Seq II: 8

## CYGNSHAS
  Counts (raw counts for peptide sequence), Seq I: 36
  Counts (raw counts for peptide sequence), Seq II: 8
  Percentage of the pool, averaged across the two sequencing samples: 0.013%
  Percentage of the pool, Seq I: 0.008%
  Percentage of the pool, Seq II: 0.019%

## CYGNSHASWG
  Percentage Seq I: 0.483%
  Percentage Seq II: 0.469%
  Percentage Average: 0.476%
  Counts Seq I: 2115
  Counts Seq II: 202

## CYGSRTFIYAWS
  Percentage Seq I: 0.026%
  Percentage Seq II: 0.019%
  Percentage Average: 0.022%
  Counts Seq I: 114
  Counts Seq II: 8

## CYSLRLGPETV
  Counts (raw counts for peptide sequence), Seq I: 37
  Counts (raw counts for peptide sequence), Seq II: 6
  Percentage of the pool, averaged across the two sequencing samples: 0.011%
  Percentage of the pool, Seq I: 0.00846%
  Percentage of the pool, Seq II: 0.014%

## CYTAGSASWSRG
  Percentage Seq I: 0.726%
  Percentage Seq II: 0.680%
  Percentage Average: 0.703%
  Counts Seq I: 3176
  Counts Seq II: 293
